The text below walks through data of publication PMC3268005 (Journal of the American Chemical Society, 2011).

The target of data set [1] is Candida albicans cytosolic manganese superoxide dismutase (CaMnSODc) (Candida albicans). As to the kind of experiment: crystal structure.
Data set [2] shares this target. Put plainly: crystal structure. The source holds these as a separate data set.
Data set [3] has the same target. As to the kind of experiment: SEC.
The data set “SEC” concerns the molecule itself. Put plainly: SEC.

As to “Candida albicans cytosolic manganese superoxide dismutase (CaMnSODc) (enzyme)”, the stoichiometry N in data set [1] was found to be 2; in data set [2] it was 4; in data set [3], 2.

B1: Saccharomyces cerevisiae mitochondrial manganese superoxide dismutase (ScMnSOD) (enzyme, UniProt P00447 27-233, looked up)
chain: KVTLPDLKWDFGALEPYISGQINELHYTKHHQTYVNGFNTAVDQFQELSDLLAKEPSPANARKMIAIQQNIKFHGGGFTNHCLFWENLAPESQGGGEPPTGALAKAIDEQFGSLDELIKLTNTKLAGVQGSGWAFIVKNLSNGGKLDVVQTYNQDTVTGPLVPLVAIDAWEHAYYLQYQNKKADYFKAIWNVVNWKEASRRFDAGKI
B1: the “stoichiometry N” value in “SEC” is 4.
